We go through 15 molecules from patent US20200368361A1 (Regeneron, published 2020).

In assay [1] the target is T1, monkey MSR1 extracellular domain expressed with a N-terminal hexahistidine-myc-myc tag (HMM-mfMSR1) (monkey (Macaca fascicularis)).
T1 chain: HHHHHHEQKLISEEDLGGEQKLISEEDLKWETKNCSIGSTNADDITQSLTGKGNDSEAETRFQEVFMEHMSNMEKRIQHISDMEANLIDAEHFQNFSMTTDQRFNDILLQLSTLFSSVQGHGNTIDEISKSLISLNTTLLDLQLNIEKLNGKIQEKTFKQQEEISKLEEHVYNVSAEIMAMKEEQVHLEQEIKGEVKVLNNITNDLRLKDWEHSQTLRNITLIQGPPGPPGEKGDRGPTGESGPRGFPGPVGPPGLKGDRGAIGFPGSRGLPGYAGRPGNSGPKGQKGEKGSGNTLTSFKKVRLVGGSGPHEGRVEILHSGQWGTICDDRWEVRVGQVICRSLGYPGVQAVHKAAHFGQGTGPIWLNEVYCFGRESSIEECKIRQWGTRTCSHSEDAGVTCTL
Kind of assay: SPR Biacore, 25C, mAb captured by anti-human Fc, MSR1 as analyte.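 Note: Half-life of complex dissociation derived from kinetic rates, obtained by fitting Biacore 4000 sensorgrams to a 1:1 model including mass transport, run in HBS-ET buffer at pH 7.4.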
Description: (§1) Binding affinities and kinetic constants of human anti-MSR1 antibodies for different MSR1 reagents were determined by real-time surface plasmon resonance (Biacore 4000). All binding studies were performed in 10 mM HEPES, 150 mM NaCl, 3 mM EDTA, and 0.05% v/v Surfactant Tween-20, pH 7.4 (HBS-ET) running buffer at 25° C. and 37° C.
(§2) The association rate (kₐ) and dissociation rate (kd) were determined by fitting the real-time binding sensorgrams to a 1:1 binding model with mass transport limitation using Scrubber 2.0 c curve-fitting software.

In assay [2] the target is T2, human MSR1 extracellular domain expressed with a N-terminal nonahistidine tag (His9-hMSR1); R&D Systems, Cat … (human, UniProt P21757 77-451).
T2 construct: extracellular domain; Bought protein; also called His-hMSR1
T2 sequence: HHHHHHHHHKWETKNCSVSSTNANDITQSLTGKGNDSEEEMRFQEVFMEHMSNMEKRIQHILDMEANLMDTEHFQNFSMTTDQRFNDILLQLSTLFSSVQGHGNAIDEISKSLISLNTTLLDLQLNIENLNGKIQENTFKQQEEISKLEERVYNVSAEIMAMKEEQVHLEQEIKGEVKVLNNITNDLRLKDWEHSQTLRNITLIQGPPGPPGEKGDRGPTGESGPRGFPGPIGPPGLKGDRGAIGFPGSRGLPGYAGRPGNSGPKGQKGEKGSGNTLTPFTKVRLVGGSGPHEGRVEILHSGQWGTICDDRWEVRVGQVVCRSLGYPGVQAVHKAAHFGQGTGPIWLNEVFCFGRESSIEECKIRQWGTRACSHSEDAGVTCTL
The assay is described as above.
Description: as §1, §2

Assay [3] has as its target T2, human MSR1 extracellular domain …. Kind of assay: SPR Biacore, 25C, mAb captured by anti-human Fc, MSR1 as analyte; calculated from kd fixed at 1.00E-05.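 Note: Half-life of complex dissociation derived from kinetic rates, obtained by fitting Biacore 4000 sensorgrams to a 1:1 model including mass transport, run in HBS-ET buffer at pH 7.4.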
Description: as §1, §2

B1: H1H27751P-N297Q (antibody, V domains shown)
VH: EVQLVESGGGLVQPGGSLRLSCAASGFTFSNYAMHWVRQAPGKGLEYVSAISSNGGSTYYADSVKGRITISRDNSKNTLYLQMGSLRAEDMAVYYCARGRPYYYYFGMDVWGQGTTVTVSS
VL: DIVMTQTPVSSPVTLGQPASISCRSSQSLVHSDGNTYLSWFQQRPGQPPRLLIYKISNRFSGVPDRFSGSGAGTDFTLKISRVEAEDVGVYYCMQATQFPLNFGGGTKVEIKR
notes: human IgG1 Fc with N297Q point mutation
B1: the figures for the “t½” value in assay [1] and in assay [2] were 15 min and 38 min, respectively.

B2: H1H27761P-N297Q (antibody, V domains shown)
VH: EVQLVESGGDLVQPGGSLRLSCSASGFTFNIYAMSWVRQAPGKGLEWVSGISGSGGSTYYADSVKGRFTISRDNSKNTLYFQMNSLRVEDTAVYYCAKKISSSSYYYYAMDVWGQGTTVTVSS
VL: not shown
notes: human IgG1 Fc with N297Q point mutation; also called H1H27761P2-N297Q; H1H27761P2
Turning to B2, the “t½” value is 19 min in assay [1] and 23 min in assay [2].

B3: H1H27739P-N297Q (antibody, V domains shown)
VH: EVQLVESGGGLVQPGGSLRLSCTASGFTFSSYAMSWVRQAPGKGLEWVSAISGTGSSTYFTDSVKGRFAISRDNSKNTLYLQMNSLRAEDTAVYYCAKDGEWLSTVTLFDYWGQGTLVTVSS
VL: EIVMTQSPATLSVSPGERATLSCRASQSVSSNLAWYQQKPGQAPRLLIYGASTRATGIPARFSGSGSGTDFTLTISSLQSEDFALYYCQQYFIWPPHPTFGPGTKVDIKR
notes: as for B1
Consider B3, for which the “t½” value was determined as 80 min in assay [1] and 11 min in assay [2].

B4: H1H27756P-N297Q (antibody, V domains shown)
VH: QVQLVESGGGVVQPGRSLRLSCAASGFTFSNYDMHWVRQAPGKGLEWMAVISYDGINKYYADSVKGRFTISRDNSKNTLYLQMNSLRAEDTAVYYCAKGTYSWYFDLWGRGTLVTVSS
VL: not shown
notes: as for B1
Turning to B4, the “t½” value in assay [1] was 5 min; in assay [2], 94 min.

B5: H1H27760P-N297Q (antibody, V domains shown)
VH: EVQLVESGGGLVQPGRSLRLSCAASGFTFDAYAMHWVRQAPGKGLEWVSGISWNSGSIGYADSVKGRFTISRDNAKNSLYLQMNSLREEDTALYYCAKDKILELYYYGMDVWGQGTTVTVSS
VL: not shown
notes: human IgG1 Fc with N297Q point mutation; also called H1H27760P2-N297Q; H1H27760P2
In the case of B5, the “t½” value in assay [1] turned out to be 16 min; in assay [2] it was 13 min.

B6: H1H21234N-N297Q (antibody, V domains shown)
VH: QVQLQESGPGLVKPSETLSLTCTVTGGSISRNYWSWIRQPPGKGLEWIGYIYYSGSIDYNPSLKSRVTISVDTSKNQFSLKLSSMTAADTAVYYCARDRWNWKYGMDVWGQGTTVIVSS
VL: EIVLTQSPGTLSLSPGERATLSCRASQTVRNNYLAWYHQKPGQAPRLLIYGASSRATGIPDRFSGSGSGTDFTLTISRLEPEDFTVYYCHQYGNSPWTFGQGTKMEIKR
notes: as for B1
For the molecule B6, the “t½” value was 1160 min in assay [3] and 593 min in assay [1].

B7: H1H27731P-N297Q (antibody, V domains shown)
VH: QLQLQESGPGLVKPSETLSLTCTVSGGSISRISYYWGWIRQPPGKGLEWIGSIYDSGSTYYNPSLKSRVTISIDTSKNQFSLKLSSVTAADTAVYYCVRYSSSSAFAFDYWGQGTLVTVSS
VL: DIQMTQSPSSVSASVGDRVTITCRASQGISSWLAWYQQKPGKAPKLLIYAASSLQSGVPSRFSGSGSGTDFTLTISSLQPEDFATYYCQQANSFPFTFGPGTKVDIKR
notes: as for B1
With B7, the “t½” value in assay [1] worked out at 247 min; in assay [2], 515 min.

B8: H1H27754P-N297Q (antibody, V domains shown)
VH: EVQLVESGGGLVQPGGSLRLSCAASGFTFRTYAMTWVRQAPGKGLDWVSAITGDGGNTYYADSVKGRFTISRDNSKNTLYLQMNSLRAEDTAIYYCAKDQRFSFALYYFDYWGQGTLVTVSS
VL: DIQMTQSPSSVSASVGDRVTITCRASQGISSWLAWYQQKPGNAPKLLIYAAFSLQSGVPSRFSGSGSGTDFTLTISSLQPEDFATYYCQQANNFPWTFGQGTKVEIKR
notes: as for B1
As for B8, the “t½” value was 1160 min in assay [3] and 657 min in assay [1].

B9: H1H27747P-N297Q (antibody, V domains shown)
VH: QVQLVESGGAVVQPGRSLRLSCAASGFTFSYYGMHWVRQAPGKGLEWVAVISYDGSKKYYADSVKGRFTISRDNSKNTLYLQMNSLRAEDTAVYYCAKDLTVDFYYGMDVWGQGTTVTVSS
VL: DIQMTQSPSSVSASVGDRVTITCRASQGISSWLAWYQQKPGKAPKLLIYATSSLQSGAPSRFSGSGSGTDFTLTISSLQPEDFATYFCQQANSFPYTFGQGTKLEIKR
notes: as for B1
B9: the “t½” value in assay [1] came to 13 min.

B10: H1H27762P-N297Q (antibody, V domains shown)
VH: QVQLVQSGAEVKKPGSSVKVSCKASGGTFSRYDISWVRQAPGQGLEWMGGIIPIFGTSNYAQKFQGRVTITTDESTSTVYMELSSLRSEDTAVYYCARGGRYGWFDPWGQGTLVTVSS
VL: not shown
notes: human IgG1 Fc with N297Q point mutation; also called H1H27762P2-N297Q; H1H27762P2
Regarding B10, the “t½” value in assay [1] and in assay [2] was 6 min in each case.

B11: H1H27734P-N297Q (antibody, V domains shown)
VH: EVQLVESRGGLVQPGGSLRLSCAASGFTFSSYAMSWVRQAPGKGLEWVSAISGSGGSTFYADSVKGRFTISRDNSKNTVYLQMNSLRAEDTAVYYCAKALVLRFLEWLGDYWGQGTLVTVSS
VL: DIQMTQSPSTLSASVGDRVTITCRASQSISSWLAWFQQKPGKAPKLLIYKASSLESGVPSRFSGSGSGTEFTLTISSLQPDDFATYYCQQYKSYWTFGQGTKVEIKR
notes: as for B1
Turning to B11, the “t½” value worked out at 4 min in assay [1] and 10 min in assay [2].

B12: H1H27732P-N297Q (antibody, V domains shown)
VH: QLQLQESGPGLVKPSETLSLTCTVSGGSISSSTYYWGWIRQPPGKGLEWIGSFYYSGSTYYNPSLKSRVTISVGTSKNQFSLKLSSVTAADTAVYFCARGGLLGRPFVIWGQGTMVTVSS
VL: DIQMTQSPSSLSASVGDRVTITCRASQGIRNDLGWYQQKPGKAPKRLIYAASSLQSGVPSRFSGSGSGTEFTLTISSLQPEDFATYYCLQHNSYPLTFGGGTKVEIKR
notes: as for B1
For the molecule B12, the “t½” value in assay [3] was 1160 min; in assay [1], 364 min.

B13: H1H27766P-N297Q (antibody, V domains shown)
VH: EVQLVESGGGLVQPGGSLRLSCAASGFTFSSFAMSWVRQAPGKELEWVSSISGRGGSTYYADSVRGRFTISRDNSKITLYLQMNSLRAEDTAVYYCAKDIVFRYTSSAYWYFDLWGRGTLVTVSS
VL: not shown
notes: human IgG1 Fc with N297Q point mutation; also called H1H27766P2-N297Q; H1H27766P2
On to B13, for which the “t½” value in assay [1] came to 145 min; in assay [2], 620 min.

B14: H1H27729P-N297Q (antibody, V domains shown)
VH: QVQLVESGGGLVKPGGSLRLSCAASGFIFSDYYMSWIRQAPGKGLEWVSYISSSGTTIYGDSVKGRFTMSRDNAKNSLYLQMNSLRAEDTAVYYCARNYALFDYWGQGTLVTVSS
VL: DIQMTQSPSSLSASVGDRVTITCQASQDISKYLNWYQQKPGKAPKLLIYYTSNLETGVPSRFSGSGSGTDFTFTISSLQPEDIATYYCHQSDYLPFTFGPGTKVDIKR
notes: as for B1
Take B14: the “t½” value in assay [1] is 5 min; in assay [2], 11 min.

B15: H1H27759P-N297Q (antibody, V domains shown)
VH: EVQLVESGGGFVQPGGSLRLSCAASGFTFSSYAMSWVRQAPGKGLEWVSAISGTGSNTYYADSVKGRFTISRDNSKNTLYLQMNSLRAEDTAVYYCAKDRVTTVTYYFDYWGQGTLVTVSS
VL: not shown
notes: human IgG1 Fc with N297Q point mutation; also called H1H27759P2-N297Q; H1xH27759P2
For B15, the entries for the “t½” value in assay [1] and in assay [2] were 13 min and 9 min, respectively.

As a reminder, the t½ is the time needed for the level to fall by half in the phase considered.
